Columns and labels:
[1] = biological target: YFP-tagged murine Syx S806A (mouse) (UniProt Q66T02); assay: co-IP
Mupp1 = Mupp1 (UniProt O75970); assay: co-IP with anti-GFP, Mupp1 blot; settings: reference: wild-type YFP-Syx; sites S806

UniProt Q66T02, sequence (Q66T02 whole entry S806A): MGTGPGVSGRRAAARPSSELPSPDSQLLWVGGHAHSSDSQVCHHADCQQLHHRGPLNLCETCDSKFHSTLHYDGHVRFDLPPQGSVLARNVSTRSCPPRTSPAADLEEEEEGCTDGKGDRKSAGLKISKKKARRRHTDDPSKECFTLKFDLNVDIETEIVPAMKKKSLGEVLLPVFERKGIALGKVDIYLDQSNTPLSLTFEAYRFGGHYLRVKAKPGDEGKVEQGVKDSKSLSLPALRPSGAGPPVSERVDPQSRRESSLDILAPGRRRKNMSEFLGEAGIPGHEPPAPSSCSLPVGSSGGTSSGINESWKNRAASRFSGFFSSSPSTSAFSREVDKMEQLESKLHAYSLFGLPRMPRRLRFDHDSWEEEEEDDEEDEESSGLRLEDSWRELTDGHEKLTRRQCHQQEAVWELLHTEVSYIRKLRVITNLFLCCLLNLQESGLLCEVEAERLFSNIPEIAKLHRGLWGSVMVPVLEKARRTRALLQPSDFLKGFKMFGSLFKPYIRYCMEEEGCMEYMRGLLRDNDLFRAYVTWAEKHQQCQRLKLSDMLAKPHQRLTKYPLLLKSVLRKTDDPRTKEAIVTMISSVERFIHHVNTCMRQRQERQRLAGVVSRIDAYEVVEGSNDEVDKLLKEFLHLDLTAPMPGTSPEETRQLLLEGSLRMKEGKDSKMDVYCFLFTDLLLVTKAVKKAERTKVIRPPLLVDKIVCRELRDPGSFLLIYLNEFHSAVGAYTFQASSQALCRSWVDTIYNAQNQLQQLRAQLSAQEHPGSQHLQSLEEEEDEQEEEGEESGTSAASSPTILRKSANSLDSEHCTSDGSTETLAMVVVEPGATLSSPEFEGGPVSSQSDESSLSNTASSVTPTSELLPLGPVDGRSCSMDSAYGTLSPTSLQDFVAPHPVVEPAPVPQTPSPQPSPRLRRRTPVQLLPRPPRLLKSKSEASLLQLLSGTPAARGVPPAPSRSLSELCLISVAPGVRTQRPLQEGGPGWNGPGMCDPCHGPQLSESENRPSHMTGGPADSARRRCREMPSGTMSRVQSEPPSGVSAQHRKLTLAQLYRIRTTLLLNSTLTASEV

How did the amount of Mupp1 coimmunoprecipitated, fold of that with YFP-Syx [1] turn out when “Mupp1 (multiple PDZ domain protein 1), O75970 1-2070” was run?
Its amount of Mupp1 coimmunoprecipitated, fold of that with YFP-Syx is 2 fold.

“Syx (murine, YFP-mSyx) (from UniProt Q66T02) YFP-Syx-S806A” was tested. Which fold change (Mupp1) did it give?
Its fold change is “stronger”.
